The test has as its target T1, msCLDN18.1.
T1 chain: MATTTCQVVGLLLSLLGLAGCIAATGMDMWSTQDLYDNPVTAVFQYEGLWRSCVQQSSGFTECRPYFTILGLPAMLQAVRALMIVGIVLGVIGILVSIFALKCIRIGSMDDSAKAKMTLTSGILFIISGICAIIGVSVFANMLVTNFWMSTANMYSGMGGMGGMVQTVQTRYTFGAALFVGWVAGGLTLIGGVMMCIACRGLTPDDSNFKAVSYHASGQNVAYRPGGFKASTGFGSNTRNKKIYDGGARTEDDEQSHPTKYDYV
Kind of test: flow cytometry on HEK-293T overexpressing mouse Claudin 18.1; 5 µg/mL scFv-hIgG2Fc, detected with PE anti-human IgG Fcγ. How it is done:
The stained samples were analyzed by flow cytometry.

The values that follow come from US20240216430A1 (ALLOGENE THERAPEUTICS, published 2024).

B1: anti-Claudin 18.2 scFv-hIgG2Fc, clone 9G2 (Fc fusion)
chain: EVHLLESGGGLVQPWGSLTLSCAASGFTFSNYAMNWVRQAPGKGLEWVSGISGSGGSTYDADSVKGRFTISRDNSKNTLFLQMNSPRAEDTAVYYCATQGYSFGYFESWGQGTLVTVSSGGGGSGGGGSGGGGSGGGGSEIVLTQSPATLSLSPGERATLSCRASQNVNRYLAWYHQKPGQAPRLLIYDAFNRATGIPARFSGSGSGTDFTLTINSLEPEDFAVYYCQQRSDWPLTFGGGTKLEIK
notes: linker and orientation in the Fc fusion are not restated; not shown: human IgG2 Fc (hIgG2Fc)
For the molecule B1, the binding result is recorded as “binds”.

B2: anti-Claudin 18.2 scFv-hIgG2Fc, clone 2A10 (Fc fusion)
chain: QVQLQESGPGLVKPSETLSLTCTVSAGSISSYYWNWIRQPAGKGLEWIGRIYTSGSTNYNPSLRSRVTMSVDTSKNQFSLKLSSVTATDTAVYYCASASYTYFDSFDIWGQGTMVTVSSGGGGSGGGGSGGGGSGGGGSDIQLTQSPSFLSASVGDRVTITCRASQDIRNFLAWYQQKPGKAPKLLIYAASTLQSGVPSRFSGSGSGTEFALTVSSLQPEDFATYYCQQVNSYPRTFGQGTKVEIK
notes: as for B1
As to B2, the binding result is given as “binds”.

B3: anti-Claudin 18.2 scFv-hIgG2Fc, clone 12H6 (Fc fusion)
chain: EVQLVESGGGLVQPGGSLRLSCAASGFTFSRYWMSWVRQAPGKGLEWVANIKHDGSEKYYVDSVKGRFTFSRDNAKTSLYLQMNSLRVEDTALYYCARYYGGPFDYWGQGTLVTVSSGGGGSGGGGSGGGGSGGGGSEIVLTQSPGTLSLSPGERATLSCRASQSVRSSYLAWYQQKPGQAPRLLIFGASSRATGIPDRFSGSGSGTDFTLTISRLEPEDFAVYYCQQFGSSLTFGGGTKVEIK
notes: as for B1
B3: the binding result is listed as “binds”.
